# According to patent US20250002543A1:
# Assays:
# [1] = target: immunoglobulin immobilized on IgG Sepharose 6 Fast Flow (manufactured by Cytiva); assay: IgG Sepharose 6 Fast Flow column; linear gradient 0.1 M citrate pH 6.5 to pH 2.2; pH at the peak of the eluted binding protein
# [2] = target: Herceptin containing human κ light chain subgroup 1 (Vκ1) (manufactured by Chugai Pharmaceutical Co., Ltd.); assay: ELISA; Herceptin immobilised, binding protein at 2 ug/mL, dissociation with 0.05 M citric acid pH 2.7 for 2 min, absorbance ratio to wells without dissociation
substance,measurement,setting,value
"FpL_C3 (wild-type), immunoglobulin-binding domain C3 of protein L (FpL) of Finegoldia magna",Elution pH,[1],2.9 pH
same,Elution rate [%],[2],76%
